Test results from IntAct's records for PubMed 35512704.

B1: Speckle-type POZ protein (Homo sapiens), O43791 (parent)
chain: MSRVPSPPPPAEMSSGPVAESWCYTQIKVVKFSYMWTINNFSFCREEMGEVIKSSTFSSGANDKLKWCLRVNPKGLDEESKDYLSLYLLLVSCPKSEVRAKFKFSILNAKGEETKAMESQRAYRFVQGKDWGFKKFIRRDFLLDEANGLLPDDKLTLFCEVSVVQDSVNISGQNTMNMVKVPECRLADELGGLWENSRFTDCCLCVAGQEFQAHKAILAARSPVFSAMFEHEMEESKKNRVEINDVEPEVFKEMMCFIYTGKAPNLDKMADDLLAAADKYALERLKVMCEDALCSNLSVENAAEILILADLHSADQLKTQAVDFINYHASDVLETSGWKSMVVSHPHLVAEAYRSLASAQCPFLGPPRKRLKQS
partner: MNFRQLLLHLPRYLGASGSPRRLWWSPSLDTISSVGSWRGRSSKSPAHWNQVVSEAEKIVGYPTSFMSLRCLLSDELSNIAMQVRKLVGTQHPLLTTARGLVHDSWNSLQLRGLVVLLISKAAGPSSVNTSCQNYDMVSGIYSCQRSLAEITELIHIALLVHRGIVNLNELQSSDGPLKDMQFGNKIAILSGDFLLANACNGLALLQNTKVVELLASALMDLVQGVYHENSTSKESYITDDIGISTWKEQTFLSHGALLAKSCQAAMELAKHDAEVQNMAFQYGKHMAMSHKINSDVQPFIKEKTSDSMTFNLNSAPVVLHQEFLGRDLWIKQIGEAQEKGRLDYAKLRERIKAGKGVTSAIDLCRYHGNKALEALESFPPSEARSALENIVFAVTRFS
B2: Speckle-type POZ protein (Homo sapiens), O43791 (parent)
chain: B1 chain
partner: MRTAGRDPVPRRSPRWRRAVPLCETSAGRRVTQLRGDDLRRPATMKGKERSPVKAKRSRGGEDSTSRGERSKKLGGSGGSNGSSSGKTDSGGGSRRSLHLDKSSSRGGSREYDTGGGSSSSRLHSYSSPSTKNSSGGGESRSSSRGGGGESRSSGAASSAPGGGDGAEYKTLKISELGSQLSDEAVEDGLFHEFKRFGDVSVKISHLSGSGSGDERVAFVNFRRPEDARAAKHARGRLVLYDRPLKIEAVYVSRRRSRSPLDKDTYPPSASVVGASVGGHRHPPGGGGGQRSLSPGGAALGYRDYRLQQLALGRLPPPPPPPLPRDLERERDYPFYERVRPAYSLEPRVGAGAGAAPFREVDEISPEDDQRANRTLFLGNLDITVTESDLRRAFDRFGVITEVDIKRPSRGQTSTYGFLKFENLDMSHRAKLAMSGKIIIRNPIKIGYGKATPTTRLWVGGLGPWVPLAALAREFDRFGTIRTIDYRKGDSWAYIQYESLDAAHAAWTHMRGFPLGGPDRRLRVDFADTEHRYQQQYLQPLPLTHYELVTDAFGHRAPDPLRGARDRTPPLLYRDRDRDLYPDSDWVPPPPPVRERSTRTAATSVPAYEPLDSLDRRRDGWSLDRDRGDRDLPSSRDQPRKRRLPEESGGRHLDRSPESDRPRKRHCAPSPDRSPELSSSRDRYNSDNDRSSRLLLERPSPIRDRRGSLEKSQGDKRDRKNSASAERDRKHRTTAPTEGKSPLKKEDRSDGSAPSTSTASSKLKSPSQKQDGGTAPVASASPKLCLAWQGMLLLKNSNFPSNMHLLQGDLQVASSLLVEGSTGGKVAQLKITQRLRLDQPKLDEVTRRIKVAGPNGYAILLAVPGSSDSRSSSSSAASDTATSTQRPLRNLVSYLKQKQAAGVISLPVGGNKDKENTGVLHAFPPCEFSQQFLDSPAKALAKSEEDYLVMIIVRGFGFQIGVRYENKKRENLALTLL
B3: Speckle-type POZ protein (Homo sapiens), O43791 (parent)
chain: B1 chain
partner: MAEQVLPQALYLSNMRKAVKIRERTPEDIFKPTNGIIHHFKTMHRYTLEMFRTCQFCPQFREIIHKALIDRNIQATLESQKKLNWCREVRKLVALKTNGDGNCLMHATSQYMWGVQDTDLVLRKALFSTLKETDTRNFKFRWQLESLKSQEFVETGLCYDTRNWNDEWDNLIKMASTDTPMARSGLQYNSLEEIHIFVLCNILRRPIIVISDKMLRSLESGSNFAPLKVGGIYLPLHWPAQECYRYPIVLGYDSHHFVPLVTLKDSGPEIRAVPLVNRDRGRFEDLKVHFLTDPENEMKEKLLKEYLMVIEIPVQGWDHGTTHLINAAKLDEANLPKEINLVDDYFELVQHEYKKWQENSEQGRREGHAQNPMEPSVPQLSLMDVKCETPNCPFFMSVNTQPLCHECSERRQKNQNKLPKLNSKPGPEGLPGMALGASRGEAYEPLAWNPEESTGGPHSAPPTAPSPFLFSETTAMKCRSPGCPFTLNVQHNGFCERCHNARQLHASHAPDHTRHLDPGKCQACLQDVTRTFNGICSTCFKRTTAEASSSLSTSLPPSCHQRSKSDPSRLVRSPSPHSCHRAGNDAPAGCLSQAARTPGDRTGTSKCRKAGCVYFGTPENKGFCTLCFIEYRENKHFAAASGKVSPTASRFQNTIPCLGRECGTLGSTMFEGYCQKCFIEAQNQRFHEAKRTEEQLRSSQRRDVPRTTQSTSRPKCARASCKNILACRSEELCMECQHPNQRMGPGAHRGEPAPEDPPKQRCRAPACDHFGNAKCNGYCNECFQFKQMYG
B4: Speckle-type POZ protein (Homo sapiens), O43791 (parent)
chain: B1 chain
partner: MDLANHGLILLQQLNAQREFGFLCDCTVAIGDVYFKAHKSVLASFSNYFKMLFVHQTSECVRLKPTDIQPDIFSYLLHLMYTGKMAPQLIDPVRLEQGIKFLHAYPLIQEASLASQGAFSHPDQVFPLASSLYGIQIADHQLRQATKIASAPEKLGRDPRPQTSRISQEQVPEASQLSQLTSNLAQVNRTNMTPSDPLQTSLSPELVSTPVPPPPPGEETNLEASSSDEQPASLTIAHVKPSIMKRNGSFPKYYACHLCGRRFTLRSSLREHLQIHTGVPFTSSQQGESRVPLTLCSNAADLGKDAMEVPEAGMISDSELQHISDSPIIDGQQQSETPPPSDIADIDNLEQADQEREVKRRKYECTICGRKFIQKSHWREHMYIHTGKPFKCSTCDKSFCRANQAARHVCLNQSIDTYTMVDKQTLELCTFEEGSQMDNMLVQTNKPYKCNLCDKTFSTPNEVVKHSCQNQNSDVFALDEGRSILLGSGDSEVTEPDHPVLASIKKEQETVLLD
B5: Speckle-type POZ protein (Homo sapiens), O43791 (parent)
chain: B1 chain
partner: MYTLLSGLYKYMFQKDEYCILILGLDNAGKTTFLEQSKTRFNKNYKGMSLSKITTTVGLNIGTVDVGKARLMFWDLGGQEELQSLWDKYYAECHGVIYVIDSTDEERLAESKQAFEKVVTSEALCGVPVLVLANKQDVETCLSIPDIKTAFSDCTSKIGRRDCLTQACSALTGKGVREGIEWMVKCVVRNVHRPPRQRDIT
B6: Speckle-type POZ protein (Homo sapiens), O43791 (parent)
chain: B1 chain
partner: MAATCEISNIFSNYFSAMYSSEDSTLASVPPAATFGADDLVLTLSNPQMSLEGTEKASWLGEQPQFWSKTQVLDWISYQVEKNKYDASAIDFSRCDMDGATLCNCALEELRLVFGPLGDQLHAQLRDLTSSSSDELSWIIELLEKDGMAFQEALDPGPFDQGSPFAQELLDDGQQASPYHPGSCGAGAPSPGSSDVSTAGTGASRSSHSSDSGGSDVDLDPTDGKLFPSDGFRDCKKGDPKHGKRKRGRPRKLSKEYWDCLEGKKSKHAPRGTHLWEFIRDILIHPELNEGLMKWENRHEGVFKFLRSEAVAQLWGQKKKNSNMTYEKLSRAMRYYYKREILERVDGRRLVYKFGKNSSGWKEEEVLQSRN
B7: Speckle-type POZ protein (Homo sapiens), O43791 (parent)
chain: B1 chain
partner: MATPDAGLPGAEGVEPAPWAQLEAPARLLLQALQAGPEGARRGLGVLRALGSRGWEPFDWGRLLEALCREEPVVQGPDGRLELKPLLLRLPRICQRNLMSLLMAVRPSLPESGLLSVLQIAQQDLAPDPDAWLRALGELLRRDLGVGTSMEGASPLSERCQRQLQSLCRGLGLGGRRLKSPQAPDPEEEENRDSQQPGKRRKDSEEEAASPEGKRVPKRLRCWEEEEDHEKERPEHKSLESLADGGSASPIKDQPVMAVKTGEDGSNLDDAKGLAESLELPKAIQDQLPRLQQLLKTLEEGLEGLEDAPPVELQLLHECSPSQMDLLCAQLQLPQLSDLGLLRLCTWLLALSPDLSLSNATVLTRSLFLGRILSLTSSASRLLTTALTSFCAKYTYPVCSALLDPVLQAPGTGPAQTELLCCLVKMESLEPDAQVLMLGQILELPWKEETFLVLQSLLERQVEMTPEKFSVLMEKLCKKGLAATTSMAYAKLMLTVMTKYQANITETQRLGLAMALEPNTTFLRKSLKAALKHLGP
B8: Speckle-type POZ protein (Homo sapiens), O43791 (parent)
chain: B1 chain
partner: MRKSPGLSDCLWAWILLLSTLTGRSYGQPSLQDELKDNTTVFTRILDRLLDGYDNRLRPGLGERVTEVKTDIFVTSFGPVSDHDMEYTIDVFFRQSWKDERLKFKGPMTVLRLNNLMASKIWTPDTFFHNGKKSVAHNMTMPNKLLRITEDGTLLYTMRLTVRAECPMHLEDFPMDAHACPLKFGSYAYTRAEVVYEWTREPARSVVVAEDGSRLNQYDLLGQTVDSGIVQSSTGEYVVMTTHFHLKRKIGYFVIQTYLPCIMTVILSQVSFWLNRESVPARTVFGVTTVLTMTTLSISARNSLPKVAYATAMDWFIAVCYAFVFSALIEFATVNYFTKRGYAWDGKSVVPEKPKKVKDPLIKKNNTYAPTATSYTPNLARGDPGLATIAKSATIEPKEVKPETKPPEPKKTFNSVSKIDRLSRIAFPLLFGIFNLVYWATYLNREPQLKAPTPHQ
B9: Speckle-type POZ protein (Homo sapiens), O43791 (parent)
chain: B1 chain
partner: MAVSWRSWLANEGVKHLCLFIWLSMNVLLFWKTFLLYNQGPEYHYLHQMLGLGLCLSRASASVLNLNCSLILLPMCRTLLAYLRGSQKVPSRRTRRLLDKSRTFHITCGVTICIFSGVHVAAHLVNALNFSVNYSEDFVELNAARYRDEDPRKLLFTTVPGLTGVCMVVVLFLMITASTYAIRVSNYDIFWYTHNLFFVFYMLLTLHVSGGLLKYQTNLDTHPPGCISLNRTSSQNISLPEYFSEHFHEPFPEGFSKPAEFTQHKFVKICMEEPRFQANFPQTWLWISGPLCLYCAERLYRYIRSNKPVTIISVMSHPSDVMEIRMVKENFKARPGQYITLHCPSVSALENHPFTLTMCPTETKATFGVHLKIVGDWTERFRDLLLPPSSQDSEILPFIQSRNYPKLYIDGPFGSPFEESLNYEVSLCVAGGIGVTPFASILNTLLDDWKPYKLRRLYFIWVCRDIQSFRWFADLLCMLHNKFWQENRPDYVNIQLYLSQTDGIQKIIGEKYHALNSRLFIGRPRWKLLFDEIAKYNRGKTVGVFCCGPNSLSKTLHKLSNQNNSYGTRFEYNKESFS
B10: Speckle-type POZ protein (Homo sapiens), O43791 (parent)
chain: B1 chain
partner: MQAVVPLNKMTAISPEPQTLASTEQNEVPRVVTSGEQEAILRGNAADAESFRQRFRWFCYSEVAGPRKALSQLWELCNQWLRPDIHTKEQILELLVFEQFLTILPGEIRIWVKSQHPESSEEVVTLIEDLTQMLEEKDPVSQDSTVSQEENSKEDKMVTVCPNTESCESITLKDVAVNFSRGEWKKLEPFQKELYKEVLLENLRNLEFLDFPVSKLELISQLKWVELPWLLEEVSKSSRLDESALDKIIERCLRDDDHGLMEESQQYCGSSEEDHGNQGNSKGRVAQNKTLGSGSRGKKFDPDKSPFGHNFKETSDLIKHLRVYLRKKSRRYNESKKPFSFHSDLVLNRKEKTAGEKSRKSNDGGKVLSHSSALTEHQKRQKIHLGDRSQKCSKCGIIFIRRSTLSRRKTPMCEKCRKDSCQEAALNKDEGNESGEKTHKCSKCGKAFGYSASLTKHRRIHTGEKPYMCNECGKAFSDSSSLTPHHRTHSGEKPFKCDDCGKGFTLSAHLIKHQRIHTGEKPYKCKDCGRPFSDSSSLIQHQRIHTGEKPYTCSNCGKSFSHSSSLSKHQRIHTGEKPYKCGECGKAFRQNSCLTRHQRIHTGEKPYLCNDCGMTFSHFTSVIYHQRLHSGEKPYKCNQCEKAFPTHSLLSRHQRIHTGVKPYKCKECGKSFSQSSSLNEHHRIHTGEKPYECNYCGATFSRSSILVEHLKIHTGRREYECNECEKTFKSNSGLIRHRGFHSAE

Variants of: B1
Conditions: with dlp1_human PDSS2, Q86YH6

Variant | effect of a mutation on the interaction
Y87C | with no effect

Variants of: B2
Conditions: with rbm15_human RBM15, Q96T37

Variant | effect of a mutation on the interaction
F133L | with no effect

Variants of: B2
Conditions: with rbm15_human RBM15, Q96T37
Remark: another data set of the same source

Variant | effect of a mutation on the interaction
F133V | with no effect

Variants of: B3
Conditions: with tnap3_human TNFAIP3, P21580

Variant | effect of a mutation on the interaction
F133L | with no effect

Variants of: B3
Conditions: with tnap3_human TNFAIP3, P21580
Remark: another data set of the same source

Variant | effect of a mutation on the interaction
Y87C | with no effect

Variants of: B4
Conditions: with zbtb2_human ZBTB2, Q8N680

Variant | effect of a mutation on the interaction
F133L | with no effect

Variants of: B4
Conditions: with zbtb2_human ZBTB2, Q8N680
Remark: another data set of the same source

Variant | effect of a mutation on the interaction
F133L | causing an interaction

Variants of: B4
Conditions: with zbtb2_human ZBTB2, Q8N680
Remark: another data set of the same source

Variant | effect of a mutation on the interaction
Y87C | with no effect

Variants of: B4
Conditions: with zbtb2_human ZBTB2, Q8N680
Remark: another data set of the same source

Variant | effect of a mutation on the interaction
F133V | causing an interaction

Variants of: B5
Conditions: with arfrp_human ARFRP1, Q13795

Variant | effect of a mutation on the interaction
Y87C | with no effect

Variants of: B6
Conditions: with elf3_human ELF3, P78545

Variant | effect of a mutation on the interaction
Y87C | with no effect

Variants of: B7
Conditions: with fance_human FANCE

Variant | effect of a mutation on the interaction
Y87C | with no effect

Variants of: B8
Conditions: with gbra1_human GABRA1, P14867

Variant | effect of a mutation on the interaction
Y87C | with no effect

Variants of: B9
Conditions: with nox4_human NOX4, Q9NPH5

Variant | effect of a mutation on the interaction
Y87C | with no effect

Variants of: B10
Conditions: with zn483_human ZNF483, Q8TF39

Variant | effect of a mutation on the interaction
Y87C | with no effect
